Source: US7125658B2, “Small protein that interacts with a ribonucleotide reductase subunit and uses thereof” (The Trustees of Columbia University in the City of New York, priority 1998, dated 2006)

T1: Recombinant yeast Rnr1 protein (large subunit of ribonucleotide reductase) (yeast (Saccharomyces cerevisiae), UniProt P21524 1-888)
T1 construct: It is in monomer/dimer/tetramer equilibrium depending on dTTP; also called yeast R1 protein
T1 sequence (looked up): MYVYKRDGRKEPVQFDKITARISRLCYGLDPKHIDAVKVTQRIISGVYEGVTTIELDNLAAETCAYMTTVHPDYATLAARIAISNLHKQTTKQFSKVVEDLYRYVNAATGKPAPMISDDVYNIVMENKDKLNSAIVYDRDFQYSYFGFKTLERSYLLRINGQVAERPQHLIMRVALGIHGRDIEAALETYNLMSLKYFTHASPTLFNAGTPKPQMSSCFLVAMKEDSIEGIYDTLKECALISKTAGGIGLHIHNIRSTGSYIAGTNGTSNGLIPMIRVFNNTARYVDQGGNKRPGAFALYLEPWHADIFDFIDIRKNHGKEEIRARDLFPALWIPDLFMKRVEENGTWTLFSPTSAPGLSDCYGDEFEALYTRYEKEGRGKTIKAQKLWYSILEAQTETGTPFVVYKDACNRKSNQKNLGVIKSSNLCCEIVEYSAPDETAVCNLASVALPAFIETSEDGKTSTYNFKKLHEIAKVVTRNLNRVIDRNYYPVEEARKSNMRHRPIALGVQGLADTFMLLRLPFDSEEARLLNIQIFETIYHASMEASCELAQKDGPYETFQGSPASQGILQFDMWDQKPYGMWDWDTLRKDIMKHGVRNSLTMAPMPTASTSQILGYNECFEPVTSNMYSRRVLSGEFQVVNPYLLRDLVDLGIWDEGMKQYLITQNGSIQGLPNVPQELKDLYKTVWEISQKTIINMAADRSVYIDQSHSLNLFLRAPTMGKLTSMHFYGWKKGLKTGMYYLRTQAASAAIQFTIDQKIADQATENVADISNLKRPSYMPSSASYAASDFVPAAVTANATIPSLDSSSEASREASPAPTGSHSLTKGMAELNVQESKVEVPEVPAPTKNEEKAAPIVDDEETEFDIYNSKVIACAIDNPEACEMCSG

T2: yeast Rnr1p (Saccharomyces cerevisiae, UniProt P21524)
T2 construct: made in house; host or cells: E. coli BL21 (DE3), pET3a
T2 sequence (P21524 1-888): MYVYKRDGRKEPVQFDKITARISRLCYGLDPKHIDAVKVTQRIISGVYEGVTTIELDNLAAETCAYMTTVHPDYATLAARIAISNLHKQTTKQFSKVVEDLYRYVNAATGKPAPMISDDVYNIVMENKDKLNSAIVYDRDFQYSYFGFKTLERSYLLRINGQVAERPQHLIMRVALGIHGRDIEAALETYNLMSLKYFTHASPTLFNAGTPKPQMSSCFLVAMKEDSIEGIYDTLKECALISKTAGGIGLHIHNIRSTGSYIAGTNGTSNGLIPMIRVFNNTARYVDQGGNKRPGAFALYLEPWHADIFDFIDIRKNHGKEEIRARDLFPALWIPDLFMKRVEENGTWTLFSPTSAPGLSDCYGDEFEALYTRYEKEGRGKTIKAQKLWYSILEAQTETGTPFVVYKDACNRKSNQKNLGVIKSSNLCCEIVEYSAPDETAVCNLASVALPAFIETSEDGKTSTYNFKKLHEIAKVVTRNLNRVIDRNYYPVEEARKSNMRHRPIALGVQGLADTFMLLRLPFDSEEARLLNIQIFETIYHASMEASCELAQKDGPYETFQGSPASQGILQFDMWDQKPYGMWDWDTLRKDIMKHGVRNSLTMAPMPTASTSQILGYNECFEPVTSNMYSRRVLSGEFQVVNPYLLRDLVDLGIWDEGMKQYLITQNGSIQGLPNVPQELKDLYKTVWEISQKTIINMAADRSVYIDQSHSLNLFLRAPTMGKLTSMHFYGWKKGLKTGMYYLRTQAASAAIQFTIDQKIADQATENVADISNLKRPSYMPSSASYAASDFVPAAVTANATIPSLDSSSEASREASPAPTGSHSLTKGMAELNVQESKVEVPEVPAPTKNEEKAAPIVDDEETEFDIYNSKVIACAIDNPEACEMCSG


Legend:
[1] = molecular target: T1, Recombinant yeast Rnr1 protein (large …); assay: BIAcore SPR, BIAevaluation software, lower curves of FIG. 12A; kinetic fit (BIAevaluation), lower curves of FIG. 12A
Experimental: In this figure, the bulk effect response of around 60 RU has been subtracted.
BIAcore biosensor analysis. The interaction between Sml1p and either yeast Rnr1p or mouse R1 protein was studied by biosensor analysis using the BIAcore method (Biacore AB). The Sml1 protein was prepared in 10 mM sodium acetate, pH 5.2, at a concentration of 0.44 mg/ml; it was then immobilized on the dextran layer of the sensor chip as described previously for the mouse R2 protein (17). The ligand proteins were equilibrated with running buffer (10 mM Hepes-KOH, pH 7.4, 200 mM potassium acetate, 1 mM EDTA, 5 mM magnesium acetate and 0.05% Surfactant P20 (BIAcore). The interactions were studied at a constant temperature of 22° C. and a constant flow of 5 μl/min. Kinetics for the interaction of Sml1p with yeast Rnr1p was determined by allowing the immobilized Sml1p to interact with increasing concentrations of Rnr1p (18). The resonance unit (RU) is proportional to the mass, and 1 RU corresponds to a surface concentration of 1 pg of protein/mm² of the 100 nm thick dextran layer (19).
In control experiments, where the same series of Rnr1p solutions passed a sensor chip without immobilized Sml1p, a "bulk effect" gave a response of only about 60 RU. […] Calculating the equilibrium dissociation constant from these rate constants gave a K_0 of about 0.25 µM, which is close to the directly determined K_0.

[2] = molecular target: T2, yeast Rnr1p; assay: sucrose gradient centrifugation of Rnr1p with Sml1p; type: binding; conditions: 500 μg Rnr1p, 90 μg Sml1 protein, 0.1 mM dTTP
Experimental: FIG. 11 Sucrose gradient centrifugation of yeast Rnr1p in the absence or in the presence of dTTP, with or without Sml1p. Sedimentation (from the right to the left) was performed as described in Materials and Methods. Catalase (s20,w=11.4 S) sedimented in fraction 14 (arrow). Thick line, Rnr1 protein sedimented alone without dTTP or Sml1p. The two peaks represent the dimer (fraction 21) and monomer (fraction 25) positions in the gradient. Hatched line, Rnr1p sedimented in the presence of dTTP. Most of the material now sedimented as tetramers (fraction 5) or dimers (fraction 21). Note that the small peak sedimenting at fraction 26 represents an impurity in the Rnr1p preparation (the band just below the R1 band in the gel insert). The sedimentation of this material is not affected by dTTP. […]
Sucrose gradient centrifugation. […] Aliquots of each fraction were removed for spectrophotometric assay of catalase activity (20); protein concentration as determined by the Bradford method (21); or SDS-PAGE analysis.
Interaction between yeast Rnr1 protein and Sml1 protein assayed by sucrose gradient centrifugation. […] To test if Sml1p binding to the Rnr1p might interfere with Rnr1p dimer formation and thereby inhibit RNR activity, we preincubated Rnr1p and Sml1p in the presence of the allosteric effector dTTP; we then analyzed the mixture on a sucrose gradient (FIG. 11). […]

Row | Molecule | koff [1] [s⁻¹] | kon [1] [M⁻¹ s⁻¹] | effect on Rnr1p monomer/dimer equilibrium [2]
1 | Recombinant yeast Sml1 protein (other, Immobilized on the BIAcore chip in the biosensor experiments; also called YML058W product) MQNSQDYFYAQNRCQQQQAPSTLRTVTMAEFRRVPLPPMAEVPMLSTQNSMGSSASASASSLEMWEKDLEERLNSIDHDMNNNKFGSGELKSMFNQGKVEEMDF | 0.04 | ~153000 | –
2 | Sml1p: 104 amino acid yeast protein encoded by YML058w (SML1) that binds Rnr1 and inhibits ribonucleotide reductase; recombinant, expressed in E. coli (protein) MQNSQDYFYAQNRCQQQQAPSTLRTVTMAEFRRVPLPPMAEVPMLSTQNSMGSSASASASSLEMWEKDLEERLNSIDHDMNNNKFGSGELKSMFNQGKVEEMDF | – | – | did not influence the monomer/dimer equilibrium
